Legend:
Assay in all cases: co-IP
[1] = biological target: Syntaxin13 (Stx13), endogenous in HEK cells (human (endogenous in HEK293T)) (UniProt Q86Y82)
GFP-tagged Rab4 = GFP-tagged Rab4 (UniProt P20338)
GFP-tagged GRIP1 = GFP-tagged GRIP1 (UniProt P97879)
Sequence of UniProt P97879 (P97879 whole entry): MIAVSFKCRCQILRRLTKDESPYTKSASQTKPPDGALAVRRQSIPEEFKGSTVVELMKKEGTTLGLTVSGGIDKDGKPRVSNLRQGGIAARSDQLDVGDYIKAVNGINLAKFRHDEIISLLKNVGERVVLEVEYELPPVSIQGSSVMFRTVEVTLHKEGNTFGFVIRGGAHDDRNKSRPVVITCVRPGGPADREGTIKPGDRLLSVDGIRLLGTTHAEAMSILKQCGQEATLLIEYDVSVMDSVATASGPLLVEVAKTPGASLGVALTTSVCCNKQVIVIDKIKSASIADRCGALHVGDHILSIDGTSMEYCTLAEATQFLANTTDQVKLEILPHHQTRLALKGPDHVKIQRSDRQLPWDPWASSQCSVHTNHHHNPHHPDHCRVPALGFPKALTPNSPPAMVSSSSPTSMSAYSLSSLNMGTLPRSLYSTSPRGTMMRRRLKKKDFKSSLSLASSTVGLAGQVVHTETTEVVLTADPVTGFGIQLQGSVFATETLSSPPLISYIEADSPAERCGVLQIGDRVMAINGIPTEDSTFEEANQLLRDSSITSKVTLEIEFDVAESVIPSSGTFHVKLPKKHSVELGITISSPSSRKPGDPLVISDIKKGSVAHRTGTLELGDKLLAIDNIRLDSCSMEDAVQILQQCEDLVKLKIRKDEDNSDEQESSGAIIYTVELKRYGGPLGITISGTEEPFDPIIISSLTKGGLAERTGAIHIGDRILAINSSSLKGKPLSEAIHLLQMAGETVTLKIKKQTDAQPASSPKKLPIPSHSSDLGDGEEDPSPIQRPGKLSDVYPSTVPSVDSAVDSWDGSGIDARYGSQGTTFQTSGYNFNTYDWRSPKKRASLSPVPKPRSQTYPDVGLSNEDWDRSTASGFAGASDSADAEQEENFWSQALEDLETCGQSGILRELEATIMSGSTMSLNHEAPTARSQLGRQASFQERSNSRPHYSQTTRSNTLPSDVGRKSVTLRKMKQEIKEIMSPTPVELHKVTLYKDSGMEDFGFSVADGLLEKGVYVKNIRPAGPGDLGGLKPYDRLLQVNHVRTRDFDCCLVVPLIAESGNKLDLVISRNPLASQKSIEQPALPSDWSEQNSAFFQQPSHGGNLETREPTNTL

Sequence of UniProt Q86Y82 (Q86Y82 whole entry): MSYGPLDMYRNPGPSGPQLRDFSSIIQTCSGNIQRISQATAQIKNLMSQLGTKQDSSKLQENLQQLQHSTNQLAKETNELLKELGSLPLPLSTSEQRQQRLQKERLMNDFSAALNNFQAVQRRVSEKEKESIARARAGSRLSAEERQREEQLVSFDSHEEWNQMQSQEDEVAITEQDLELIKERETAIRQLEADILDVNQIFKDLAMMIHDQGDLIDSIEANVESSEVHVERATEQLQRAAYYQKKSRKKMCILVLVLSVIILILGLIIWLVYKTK
Sequence of UniProt P20338 (P20338 whole entry): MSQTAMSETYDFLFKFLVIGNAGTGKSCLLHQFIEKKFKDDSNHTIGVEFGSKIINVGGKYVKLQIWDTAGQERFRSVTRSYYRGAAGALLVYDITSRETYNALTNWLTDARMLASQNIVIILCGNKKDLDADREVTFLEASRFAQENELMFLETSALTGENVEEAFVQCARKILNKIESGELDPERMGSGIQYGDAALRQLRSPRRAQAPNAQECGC

Substance | GRASP1 co-precipitated with Stx13, % WT [1] [% WT] | GRASP1 co-precipitated with Rab4, % WT (GFP-tagged Rab4) [% WT] | GRASP1 co-precipitated with GRIP1, % WT (GFP-tagged GRIP1) [% WT]
GRASP1 GBD deletion mutant (dGBD) (from UniProt Q8VD04 1-806) (natural protein) | 62.7 | 34.8 | 42.6
GRASP1 R822Q (intellectual disability mutant) (from UniProt Q8VD04 1-806) (natural protein) | 83.2 | 105 | 43.7
GRASP1 S73N (intellectual disability mutant) (from UniProt Q8VD04 1-806) (natural protein) | 553 | 98.2 | 206

Reference: publication PMC5382714
